According to patent US20220041658A1 (PROTAGONIST THERAPEUTICS, published 2022):
Starred links: 1 amine or outer side, 2 acyl side, 3 side chain; linkers in the order of their positions; H or OH if unused. Positions of bridges follow the written chain, without caps; N, C: chain ends. Non-standard residues stand in square brackets, D forms with d. Trp(6-Et) = 6-ethyl-tryptophan, CCc1ccc2c(C[C@H](N[*:1])C(=O)[*:2])c[nH]c2c1; Trp(7-OMe) = COc1cccc2c(C[C@H](N)C(=O)O)c[nH]c12; Trp(7-Me) = Cc1cccc2c(C[C@H](N)C(=O)O)c[nH]c12; 2Nal = N[C@@H](Cc1ccc2ccccc2c1)C(=O)O; AEF = NCCOc1ccc(C[C@H](N)C(=O)O)cc1; Cit = NC(=O)NCCC[C@H](N)C(=O)O; Pen = CC(C)(S)[C@H](N)C(=O)O; hLeu = CC(C)CC[C@H](N)C(=O)O; αMeK = C[C@](N)(CCCCN)C(=O)O; Abu = CC[C@H](N)C(=O)O; Aib = CC(C)(N)C(=O)O; βAla = NCCC(=O)O

Legend:
[1] = molecular target: T1, interleukin-23 receptor (IL-23R) (human, UniProt Q5VWK5 24-629); assay: cell-based or functional assay
T1 sequence (looked up): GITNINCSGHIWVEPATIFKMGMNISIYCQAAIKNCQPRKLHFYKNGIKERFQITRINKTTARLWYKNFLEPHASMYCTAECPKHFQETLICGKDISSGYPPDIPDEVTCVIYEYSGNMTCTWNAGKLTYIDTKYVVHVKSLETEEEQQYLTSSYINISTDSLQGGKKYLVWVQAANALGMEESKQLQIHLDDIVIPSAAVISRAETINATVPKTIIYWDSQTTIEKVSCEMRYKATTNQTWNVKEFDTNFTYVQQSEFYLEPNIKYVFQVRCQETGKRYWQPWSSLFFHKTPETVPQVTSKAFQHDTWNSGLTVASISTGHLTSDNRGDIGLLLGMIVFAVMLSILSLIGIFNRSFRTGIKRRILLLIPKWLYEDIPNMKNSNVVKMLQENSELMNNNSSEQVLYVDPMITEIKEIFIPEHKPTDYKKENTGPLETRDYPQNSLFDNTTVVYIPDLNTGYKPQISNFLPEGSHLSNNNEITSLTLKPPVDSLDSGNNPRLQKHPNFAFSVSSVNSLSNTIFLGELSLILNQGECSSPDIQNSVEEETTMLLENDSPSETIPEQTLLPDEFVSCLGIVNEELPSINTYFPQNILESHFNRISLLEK

[2] = molecular target: T1, interleukin-23 receptor (IL-23R); assay: cell-based or functional assay; remark: listed apart in the source

B1: Peptide of SEQ ID NO: 212 (peptide)
peptide: XNTXQXXXXKPX
modifications: Ac-[Pen]-NT-[W(7-Me)]-Q-[Pen]-Phe[4-(2-aminoethoxy)]-[2-Nal]-[a-MeLeu]-[Lys(Ac)]-[(D)Pro]-[bA]-NH2; Pen-Pen disulfide
B1 was tested, and the “pStat3 HTRF IC50” value [1] was 36.5 nM and the “NK Cell Assay IC50” value [2] was 157 nM.

B2: Peptide of SEQ ID NO: 316 (peptide)
peptide: XNTXXXXXXKNL
modifications: not fully specified; Ac-[Pen]-N-T-[W(7-Me)]-[Lys(cyclohexyl)]-[Pen]-Phe[4-(2-aminoethoxy)]-[2-Nal]-[a-MeLys]-[Lys(Ac)]-N-[(D)Leu]-NH2; Pen-Pen disulfide
B2 was tested, and the “pStat3 HTRF IC50” value [1] was 5.6 nM.

B3: Peptide of SEQ ID NO: 296 (peptide)
peptide: XNTXQXXXXKNK
modifications: Ac-[Pen]-N-T-[W(5-CN)]-Q-[Pen]-Phe[4-(2-aminoethoxy)]-[2-Nal]-[a-MeLys]-[Lys(Ac)]-N-[(D)Lys]-NH2; Pen-Pen disulfide
For B3, the “pStat3 HTRF IC50” value [1] was 6.29 nM.

B4: Peptide of SEQ ID NO: 210 (peptide)
peptide: XNTXQXXXXKLX
modifications: Ac-[Pen]-NT-[W(7-Me)]-Q-[Pen]-Phe[4-(2-aminoethoxy)]-[2-Nal]-[a-MeLeu]-[Lys(Ac)]-[(D)Leu]-[bA]-NH2; Pen-Pen disulfide
For B4, the “pStat3 HTRF IC50” value [1] was 66.1 nM and the “NK Cell Assay IC50” value [2] was > 500 nM.

B5: Peptide of SEQ ID NO: 320 (peptide)
peptide: XNTXXXXXXKNL
modifications: Ac-[Pen]-N-T-[W(7-Me)]-[Lys(Gly)]-[Pen]-Phe[4-(2-aminoethoxy)]-[2-Nal]-[a-MeLys]-[Lys(Ac)]-N-[(D)Leu]-NH2; Pen-Pen disulfide
B5 was tested, and the “pStat3 HTRF IC50” value [1] was 0.632 nM and the “NK Cell Assay IC50” value [2] was 3.35 nM.

B6: Peptide of SEQ ID NO: 213 (peptide)
peptide: XNTXQXXXXKFX
modifications: Ac-[Pen]-NT-[W(7-Me)]-Q-[Pen]-Phe[4-(2-aminoethoxy)]-[2-Nal]-[a-MeLeu]-[Lys(Ac)]-[(D)Phe]-[bA]-NH2; Pen-Pen disulfide
For B6, the “pStat3 HTRF IC50” value [1] was 35.5 nM and the “NK Cell Assay IC50” value [2] was 60 nM.

Ac-[Pen]NT[Trp(7-Me)]K(Ac)[Pen][His_Bzl][2Nal][αMeK]K(Ac)N[dL]-NH2 (disulfide 1-6 (inferred)) [Peptide of SEQ ID NO: 293] was tested, and the “pStat3 HTRF IC50” value [1] was 224 nM.

Ac-[Pen]ST[Trp(7-Me)]K(Ac)[Pen][AEF][2Nal][αMeK]K(Ac)N[dL]-NH2 (disulfide 1-6 (inferred)) [Peptide of SEQ ID NO: 334] was tested, and the “pStat3 HTRF IC50” value [1] was 0.55 nM and the “NK Cell Assay IC50” value [2] was 4.52 nM.

B7: Peptide of SEQ ID NO: 201 (peptide)
peptide: XNTXQXXXXKNX
modifications: Ac-[Pen]-NT-[W(7-Me)]-Q-[Pen]-Phe[4-(2-aminoethoxy)]-[2-Nal]-[a-MeLeu]-[Lys(Ac)]-N-[bA]-NH2; Pen-Pen disulfide
B7 was tested, and the “pStat3 HTRF IC50” value [1] was 1.05 nM and the “NK Cell Assay IC50” value [2] was 3.06 nM.

For Ac-[dR][Abu]QT[Trp(7-Me)]K(Ac)C[AEF][2Nal][αMeK]K(Ac)N[dK]-NH2 (thioether 2-7 (inferred)) [Peptide of SEQ ID NO: 324], the “pStat3 HTRF IC50” value [1] was 27 nM and the “NK Cell Assay IC50” value [2] was 9.35 nM.

B8: Peptide of SEQ ID NO: 297 (peptide)
peptide: XNTXQXXXXKNK
modifications: Ac-[Pen]-N-T-[W(7-OMe)]-Q-[Pen]-Phe[4-(2-aminoethoxy)]-[2-Nal]-[a-MeLys]-[Lys(Ac)]-N-[(D)Lys]-NH2; Pen-Pen disulfide
In the case of B8, the “pStat3 HTRF IC50” value [1] is reported as 1.04 nM.

B9: Peptide of SEQ ID NO: 317 (peptide)
peptide: XNTXXXXXXKNL
modifications: Ac-[Pen]-N-T-[W(7-Me)]-[Lys(octanoic)]-[Pen]-Phe[4-(2-aminoethoxy)]-[2-Nal]-[a-MeLys]-[Lys(Ac)]-N-[(D)Leu]-NH2; Pen-Pen disulfide
B9 was tested, and the “pStat3 HTRF IC50” value [1] was 13 nM.

B10: Peptide of SEQ ID NO: 299 (peptide)
peptide: XNTXKXXXXKNK
modifications: Ac-[Pen]-N-T-[W(7-OMe)]-[Lys(Ac)]-[Pen]-Phe[4-(2-aminoethoxy)]-[2-Nal]-[a-MeLys]-[Lys(Ac)]-N-[(D)Lys]-NH2; Pen-Pen disulfide
With B10 the “pStat3 HTRF IC50” value [1] was 2.86 nM.

With Ac-[Pen]NT[Trp(6-Et)]K(Ac)[Pen][AEF][2Nal][αMeK]K(Ac)N[dK]-NH2 (disulfide 1-6 (inferred)) [Peptide of SEQ ID NO: 349] the “pStat3 HTRF IC50” value [1] was 12.7 nM and the “NK Cell Assay IC50” value [2] was 45.5 nM.

For Ac-[dR][Abu]QT[Trp(7-Me)]K(Ac)C[AEF][2Nal][αMeK]K(Ac)N[dL]-NH2 (thioether 2-7 (inferred)) [Peptide of SEQ ID NO: 325], the “pStat3 HTRF IC50” value [1] was 4.45 nM and the “NK Cell Assay IC50” value [2] was 12.7 nM.

For Ac-[Pen]NT[Trp(7-OMe)][Cit][Pen][AEF][2Nal][αMeK]K(Ac)N[dK]-NH2 (disulfide 1-6 (inferred)) [Peptide of SEQ ID NO: 300], the “pStat3 HTRF IC50” value [1] was > 1 µM.

B11: Peptide of SEQ ID NO: 352 (peptide)
peptide: XNTXKXXXXKSK
modifications: Ac-[Pen]-N-T-[W(7-Me)]-[Lys(Ac)]-[Pen]-Phe[4-(2-aminoethoxy)]-[2-Nal]-[a-MeLys]-[Lys(Ac)]-S-[(D)Lys]-NH2; Pen-Pen disulfide
For B11, the “pStat3 HTRF IC50” value [1] was 0.927 nM and the “NK Cell Assay IC50” value [2] was 3.5 nM.

With Ac-[Pen]NT[Trp(7-Me)][Cit][Pen][AEF][2Nal][αMeK]K(Ac)N[Aib][βAla]-NH2 (disulfide 1-6 (inferred)) [Peptide of SEQ ID NO: 340] the “pStat3 HTRF IC50” value [1] was 0.322 nM and the “NK Cell Assay IC50” value [2] was 2.1 nM.

B12: Peptide of SEQ ID NO: 315 (peptide)
peptide: XNTXXXXXXKNL
modifications: Ac-[Pen]-N-T-[W(7-Me)]-[Lys(IVA)]-[Pen]-Phe[4-(2-aminoethoxy)]-[2-Nal]-[a-MeLys]-[Lys(Ac)]-N-[(D)Leu]-NH2; Pen-Pen disulfide
For B12, the “pStat3 HTRF IC50” value [1] was 1.41 nM.

With Ac-[Pen][hLeu]T[Trp(7-Me)]K(Ac)[Pen][AEF][2Nal][αMeK]K(Ac)N[dL]-NH2 (disulfide 1-6 (inferred)) [Peptide of SEQ ID NO: 337] the “pStat3 HTRF IC50” value [1] was 0.779 nM and the “NK Cell Assay IC50” value [2] was 11.1 nM.
